Assay: soluble on expression in E. coli; label from the status in PepcDB or PDB records

Row | Sequence | soluble on expression in E. coli
1 | MGSDKIHHHHHHMPSPLLRRENKIKILRYILKNGKTTRNQLASNLNLAHSTLSYIIDELLDEGFLVFEEIKKKRGRPYQILSVNPEKFTAIGVKVGREEVRGVLFDARMNPLKEHRVQILSGMRNNDGYTRALRETIEQLRSENLLGVGICSSGIVKEGRVVVSHVMNVKDWDPRKVLKDLERILVMNDSDALCREISQRVNTDFLLVSYGVGIGASLWKDKKIHHIEMGHMLAASEGKCYCGQTGCLEYHSSEYAVLKSYLGKEIDFEDFITSEEEKYRQTIEELREKAREDFDSVKVHYEKAFKTFSVVLGNVIMGSGVSRVFFAGEGVVSEEMVKILEELVKVRFNRDFVGEVQFQVADANWMLGAARAVVDKYLPYIVK | not soluble
2 | MNKENIIADAPSDVVKTVQQQVHLNQDEYKYLKQVEQILREGTRRDDRTGTGTISIFGMQSKYCLRNGTIPLLTTKRVYWKGVLEELLWFISGSTDGKLLMEKNVKIWEKNGDRAFLDNLGFTSREEGDLGPVYGFQWRHFGAKYVDCHTDYSGQGVDQLAEVIRQIKEQPDSRRIIMSAWNPSDLGQMVLPPCHTMCQFYVDNGELSCQLYQRSGDMGLGVPFNLASYGLLTHMIAKVCGLKPGTLVHTLGDAHVYSNHVDALKIQLDREPYAFPKIRFTRDVASIDDFTSDMIALDDYKCHPKIPMDMAV | soluble
3 | MPDRHVASSETKRGGAGMTDRELSDQAIAVLVDVARTAGRDLNAGQRLELDRLVSDGLVAVSTSGDPAGQRHYRLTVAGQTALDQRGVGANEA | not soluble
4 | MSLNASVSPKGSLETLSQREVQQLSEVGTGSLYTLFRQCALAILNTGAHVDNAKTILEAYKDFEVRIHQQDRGVRLELLNAPADAFVDGEMIASTREMLFSALRDIVYTESELASQRIDLESSQGITDYVFHLLRNARTLRPGEGHHHHHH | not soluble
5 | MADGEAVISTVNNVEEVHGQLFEVAPRYVNLSYIGEGAYGMVASALDTITRDRVAIKKISPFEHQTFCQRTLREIKILNRFKHENIINIQEIIRSETVDSLKDIYIVQCLMETDLYKLLKTQKLSNDHVCYFLYQILRGLKYIHSANVLHRDLKPSNLLLNTTCDLKICDFGLARVTDPQTDHTGFLTEYVATRWYRAPEIMLNSKGYTKSIDVWSVGCILAEMLSNRPLFPGKHYLDQLNLILAVVGSPSNADLQCIINDKARSYLISLPHKPKQPWARLYPGADPRALDLLDKMLTFNPHNRIDIEQALAHPYLEQYYDPGDEPVCEEPFTLEMEFDDLPKEKLKELIWEEAEAHHRRMEAEAAARNNGGQNPV | not soluble
6 | MKWNLDPSHTSIDFKVRHMGIASVRGSLKVLSGSVETDEAGRPIQVEAVIDAASIATGEPQRDGHLRSADFLHAEQYPEIRFVSTQIEPLGGNRYRIQGNLTIRDITKPVTLEAEVSAPIKDPWGMQRVAASASGQINRKDWNLTWNQVLELGALLVGEEVKFNLEVEAVAPAPVAAQ | soluble
7 | MAHHHHHHMCISELRSLRGHGRNVYIIYDVAKEGTPPPRHFASTSGWGMIAVSFPKVTNYDEWEKQLKAARIIMNCPDGMDVKAMCAWMERDGDTDEQTKYWKMVETHMEKVGPIPRHIFYAKGINARFGAVENALEAINSRYADDRFILPGGGLWYAKDPSQKLVRIVRIRGERGNERFRNAPICYFLGSRSANILAKAMSEKDFLLLVWGVRKTISSAYLEKFCLRALIFGRFFSAMAEELKELNSPAHDIQDTVLKANPGAHPTEICEIPGVGKIDAKQNINHRVLYIPMLRDFPLVDCFFFVESPRRTLVGLQMTTAGEHHTTTSTVRQFTEHLSKFFNGWDEFAQGLSWRDYLCAARRQHADEWLAEMWCRRPAECGRC | not soluble
8 | FASVLQGVFEYPYGCAEQTASKGYAALWLDDATIRSLGIQGVTPAQRLERLEGALGRLASLQTTNGHFSMWGGNSDVNPVLTPYIAGFLLDAKDAGFAVSDAVLQKALNRLSEDLLSGAHLFYGNDQSEALMFAHQAWSGYVLARVNRAPLGTLRTLYDNERGKAVSGLSLVHLGVALSLQGDRKRGEAAIEAGFAKSEGGRPEVFGDYGSVIRDNALMIALVRAHGLAKPAYEARVMALGRDLQARRRSGWLWLSTQEQVALAQ | not soluble
9 | MGSDKIHHHHHHMTHEEHHAAKTLGIGKAIAVLTSGGDAQGMNAAVRAVVRVGIFTGARVFFVHEGYQGLVDGGDHIKEATWESVSMMLQLGGTVIGSARCKDFREREGRLRAAYNLVKRGITNLCVIGGDGSLTGADTFRSEWSDLLSDLQKAGKITDEEATKSSYLNIVGLVGSIDNDFCGTDMTIGTDSALHRIMEIVDAITTTAQSHQRTFVLEVMGRHCGYLALVTSLSCGADWVFIPECPPDDDWEEHLCRRLSETRTRGSRLNIIIVAEGAIDKNGKPITSEDIKNLVVKRLGYDTRVTVLGHVQRGGTPSAFDRILGSRMGVEAVMALLEGTPDTPACVVSLSGNQAVRLPLMECVQVTKDVTKAMDEKKFDEALKLRGRSFMNNWEVYKLLAHVRPPVSKSGSHTVAVMNVGAPAAGMNAAVRSTVRIGLIQGNRVLVVHDGFEGLAKGQIEEAGWSYVGGWTGQGGSKLGTKRTLPKKSFEQISANITKFNIQGLVIIGGFEAYTGGLELMEGRKQFDELCIPFVVIPATVSNNVPGSDFSVGADTALNTICTTCDRIKQSAAGTKRRVFIIETMGGYCGYLATMAGLAAGADAAYIFEEPFTIRDLQANVEHLVQKMKTTVKRGLVLRNEKCNENYTTDFIFNLYSEEGKGIFDSRKNVLGHMQQGGSPTPFDRNFATKMGAKAMNWMSGKIKESYRNGRIFANTPDSGCVLGMRKRALVFQPVAELKDQTDFEHRIPKEQWWLKLRPILKILAKYEIDLDTSDHAHLEHITRKRSGEAAV | not soluble
10 | MSMYTTAQLLAANEKKFKFDPLFLRLFFRESYPFTTEKVYLSQIPGLVNMALYVSPIVSGEVIRSRGGSTSEFTPGYVKPKHEVNPQMTLRRLPDEDPQNLADPAYRRRRIIMQNMRDEELAIAQVEEMQAVSAVLKGKYTMTGEAFDPVEVDMGRSAANNITQSGGTEWSKRDKSTYDPTDDIEAYALNASGVVNIIVFDPKGWALFRSFKAVKEKLDTRRGSNSELETAVKDLGEAVSYKGMYGDTAIVVYSGQYVENDVKKNFLPDNTMVLGNTQARGLRTYGCIQDADAQREGINASARYPKNWVTTGDPAREFTMIQSAPLMLLADPDAFVSVQLA | not soluble
11 | MDAVSKAAIRLLDTIGITGVTKVNTYAGPEQEYFLIDKKFYAQRPDLIMTGRTLLGALPPKGQQLEDHYFGSIPDRVLEFMQEVEEELFLLGIPAKTRHNEVAPHQFEIAPIFEQVNLASDHNLLVMEVMRKVADKKGFALLLFEKPFAGINGSGKHNNWSIGIDGGMNLLDPGDTPESNISFLVFLVAVLKGVLKRSAILRASVASIGNDHRLGANEAPPAVITVFLGDLLEKVLDAIESGKVDLKTEKQILDLGLSHVPVLNKDYTDRNRTSPFAFTGNKFEFRAVGSSQPISVPNMVLNTIMAEALDDLNAEILAKIEGGMAKEDAILAAVRDGIIATKAVRYPGDNYSEDLQRAAAERGLPNMKNTPESVRAWTDKDTVSMFVKYGVLTAEEIESRYNVRIERYVKGIDI | not soluble
12 | MSDSDSVGESSHPKKTAPKKEKASPKNKKDDANESMVMTEEDRNVFTSIDKKGGGSKQMAIVDIYQKKSQLEHILLRPDSYIGSIEHTEKKPMWVYNMEDSKLEQRDISYVPGLFKIYDEILVNAADNKQRDRKMNTIRVTINKAKNEISVYNNGKGIPVTQHKVEKVFVPELIFGSLLTSSNFVGNQKAMIGGRNGYGAKLCNIFSTKFTCETSSRVYKSAFKQTWINNMTRDEEPTIVPSTDEDFTKITFSPDLAKFKMKELDDDICHLMARRAYDVAATCKGVDVILNGEMISVKGFEDYVKMYTSQITFEGEPLKTVYEQIGNRWQVALALSDVGFQQISFANNVSTTKGGRHVDHVVDQMIARLKGSIKQELSKDVDPFMIENHLWVFVNCLIEWPTFDSQTKEMMTLRHDRFGSTCALSKKFCKTALQIGLIRQISREIGVDIRENLVQKASESSPIKCIPKLEDAKEAGTKTSERCTLIVTEGDSAKTLAISGLSVVGRDKFGVFPLRGKLLNVRDASVKQIAENAEVNAMIKILGLQRDLKYEFDDEFRTLRYGKLMIMADQDQDGSHIKGLIISFLHHFWPSLIQRNFVEEFITPIVKATKGKEEVSFYSLPEYSEWRTNTDNWKSYKIKYYKGLGTSTAKEAKE | not soluble
